These results are taken from patent US11779649B2, “Antibodies to PMEL17 and conjugates thereof” (Novartis AG, priority 2018, dated 2023).

The subject of one test is 92.1 uveal melanoma. Briefly: Resazurin-based viability assay, 92.1 uveal melanoma cells. Conditions: 92.1; Table 10; read-out: GI50. Format: cell-based. As for the experimental part: (§1) Following drug treatment for 96 or 120 hours, cell viability and proliferation were determined using a resazurin-based viability assay. Briefly, cells were incubated with a resazurin-based solution and color change was detected by absorbance with a spectrophotometer and used as a readout of cell viability. Data presented as mean of 3 independent replicates and relative to PBS-treated cells (control).
Following drug treatment for 96 or 120 hours, cell viability and proliferation were determined using a resazurin-based viability assay. Briefly, cells were incubated with a resazurin-based solution and color change was detected by absorbance with a spectrophotometer and used as a readout of cell viability. Data presented as mean of 3 independent replicates and relative to PBS-treated cells (control) (FIG. 6).
Following drug treatment for 96 or 120 hours, cell viability and proliferation were determined using a resazurin-based viability assay. Data presented as mean of 3 independent replicates and relative to PBS-treated cells (control) (FIG. 8).
as §1

Test [1] concerns 92.1-luciferase subcutaneous xenografts. Put plainly: 92.1-luciferase subcutaneous xenograft tumor growth in female nude mice. In kind it is in vivo. Conditions: single i.v. injection, FIG. 18. As for the experimental part:
Treatment (single dose i.v. injection) was performed 17 days post tumor inoculation. Values are mean±SEM; sample size, (n=5-12 mice per group). Initial tumor volume at day 0 was approximately 200-250 mm^3.
Treatments (single dose i.v. injection) were performed 17 days post tumor inoculation. Values represent mean±SEM; sample size, (n=5-6 mice per group). Initial tumor volume at day 0 was approximately 300-325 mm^3. (FIG. 16).
Treatment (single dose i.v. injection) was performed 14-17 days post tumor inoculation. Values are mean±SEM; sample size, (n=5-12 mice per group). Initial tumor volume at day 0 was approximately 200-250 mm3.

The next test deals with T1, human PMEL17 (Homo sapiens, UniProt P40967).
T1 construct: G-361 melanoma cell line expresses human PMEL17 at a lower level compared to the HKB11-human PMEL17 overexpressing cell line; endogenous in cells; host or cells: G-361 (human melanoma)
T1 sequence (P40967 25-661): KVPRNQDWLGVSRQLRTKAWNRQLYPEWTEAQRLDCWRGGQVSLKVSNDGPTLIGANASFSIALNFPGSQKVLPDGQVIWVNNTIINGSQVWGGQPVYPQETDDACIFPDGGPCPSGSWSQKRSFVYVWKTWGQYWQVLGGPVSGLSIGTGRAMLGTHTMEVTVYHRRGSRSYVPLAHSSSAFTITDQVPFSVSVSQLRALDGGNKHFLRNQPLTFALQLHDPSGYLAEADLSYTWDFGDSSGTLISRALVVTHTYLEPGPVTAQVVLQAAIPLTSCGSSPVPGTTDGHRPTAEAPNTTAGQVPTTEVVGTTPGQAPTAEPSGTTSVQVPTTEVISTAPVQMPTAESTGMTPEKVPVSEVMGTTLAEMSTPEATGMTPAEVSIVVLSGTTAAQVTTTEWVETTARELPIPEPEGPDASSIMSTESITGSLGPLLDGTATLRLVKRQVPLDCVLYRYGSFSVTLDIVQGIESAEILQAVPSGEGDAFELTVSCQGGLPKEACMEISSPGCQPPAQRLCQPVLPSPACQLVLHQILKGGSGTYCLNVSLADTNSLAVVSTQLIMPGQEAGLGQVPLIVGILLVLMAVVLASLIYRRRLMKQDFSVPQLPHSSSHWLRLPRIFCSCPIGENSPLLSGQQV
Put plainly: Apparent affinity by FACS titration of IgGs on G-361 melanoma cell line. In kind it is binding. Conditions: G-361, Alexa Fluor-labelled detection antibody; read-out: FACS EC50 (nM) G-361 (Alexa Fluor). As for the experimental part:
(§2) Purified IgGs were titrated on a variety of PMEL17 expressing and PMEL17 non expressing cell lines (for control) to determine EC50 values. Cells were harvested using Accutase, adjusted to ˜4×10^6 cells/ml into FACS buffer (PBS, 3% FCS and 0.02% Na-Azide) and kept on ice to avoid internalization. 15 μl of cell suspension/well were transferred into 384 well V-bottom plates (Greiner, Cat #781280) and incubated with 15 μl of IgGs at different concentrations (most commonly from 200 to 3.5×10−3 nM) for 1 hour at 4° C., gently shaking. Following incubation, cells were washed three times with FACS buffer. After each washing step, cells were centrifuged (250×g, 5 min, 4° C.) and carefully resuspended. 15 μl of detection antibody conjugated to PE (PE-conjugated goat anti-human IgG, F(ab′)2 fragment specific, 1:150 in FACS buffer; Jackson Immuno Research, #109-116-097) or Alexa Fluor (Alexa Fluor-conjugated goat anti-human IgG, F(ab′)2 fragment specific, 1:150 in FACS buffer; Jackson Immuno Research, #109-606-097) were added and samples were incubated for 45 minutes to 1 hour on ice in the dark, gently shaking. After 3 washing steps, cells were resuspended in 30 μl of FACS buffer and samples were measured using the IntelliCyt HTFC device. EC50 values were calculated using the Graphpad Prism software. G-361 melanoma cell line expresses human PMEL17 at a lower level compared to the HKB11-human PMEL17 overexpressing cell line, and therefore allows a more precise ranking of the clones depending on their apparent affinity on cells.
The cross-specificity of the IgGs was evaluated in does response FACS on G-361 (human melanoma), HKB11-cyno-PMEL17, HKB11-rat PMEL17 and B16-F10 (mouse PMEL17 expressing melanoma) (Table 3). […]

The target of another test is T2, mouse PMEL17 (Mus musculus, UniProt Q60696).
T2 construct: B16-F10 (mouse PMEL17 expressing melanoma); endogenous in cells; host or cells: B16-F10 (mouse melanoma)
T2 sequence (Q60696 24-626): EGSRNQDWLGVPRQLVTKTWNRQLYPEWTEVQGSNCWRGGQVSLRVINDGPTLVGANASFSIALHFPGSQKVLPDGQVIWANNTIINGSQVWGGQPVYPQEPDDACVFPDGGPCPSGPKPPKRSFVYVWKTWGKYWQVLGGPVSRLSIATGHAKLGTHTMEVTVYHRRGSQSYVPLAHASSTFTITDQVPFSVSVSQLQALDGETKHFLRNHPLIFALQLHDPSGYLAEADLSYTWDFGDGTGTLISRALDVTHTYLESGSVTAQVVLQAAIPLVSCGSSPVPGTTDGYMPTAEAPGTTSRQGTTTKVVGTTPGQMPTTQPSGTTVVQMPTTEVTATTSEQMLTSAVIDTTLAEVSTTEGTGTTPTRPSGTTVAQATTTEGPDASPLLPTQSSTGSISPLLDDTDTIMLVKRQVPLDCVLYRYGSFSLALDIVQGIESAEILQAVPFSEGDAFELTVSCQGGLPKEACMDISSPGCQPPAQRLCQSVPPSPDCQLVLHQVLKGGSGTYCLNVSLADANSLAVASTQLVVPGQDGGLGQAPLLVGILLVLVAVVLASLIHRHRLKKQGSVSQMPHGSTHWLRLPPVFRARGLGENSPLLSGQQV
Put plainly: Apparent affinity by FACS titration of IgGs on B16-F10 melanoma cells. Format: binding. The conditions noted are these: Alexa Fluor. Here is the method:
as §2
(§3) The cross-specificity of the IgGs was evaluated in does response FACS on G-361 (human melanoma), HKB11-cyno-PMEL17, HKB11-rat PMEL17 and B16-F10 (mouse PMEL17 expressing melanoma) (Table 3). Testing on G-361 was performed using a detection antibody labelled to PE. In contrast, an Alexa-Fluor labelled detection antibody had to be used for testing the candidates on the other cell lines so as to reach detectable signals.

Another test deals with UACC-62. Briefly: FACS titration of IgGs on UACC-62 cells. Format: binding. Conditions: UACC-62, PE-labelled detection antibody. As for the experimental part: as §2
The test system of a further test is PMEL17. Put plainly: Cross-reactivity (cross-specificity profile) of anti-PMEL17 IgGs in dose response FACS. Conditions: h human, c cyno, r rat, m mouse. The arrangement: key: h/c/r/m: human/cyno/rat/mouse; h/c/r: human/cyno/rat; h/c/(m): human/cyno/mouse; h/c: human/cyno. Format: binding. Here is the method:
as §3
IgGs were classified into several epitope groups according to their cross-specificity profiles.

B1: Fc Silent G1-3J-DAR2 (E152C)-(B1) (conjugate)
heavy: QVQLVQSGAEVKKPGSSVKVSCKASGGTFSDYAITWVRQAPGQGLEWMGGIIPIFGTANYAQKFQGRVTITADESTSTAYMELSSLRSEDTAVYYCAREGGLLTDISYSRYWFAYWGQGTLVTVSS
light: SYELTQPLSVSVALGQTARITCSGDALRDKFVYWYQQKPGQAPVLVIYDDNNRPSGIPERFSGSNSGNTATLTISRAQAGDEADYYCQSWDHSYSLVVFGGGTKLTVLGQPKAAPSVTLFPPSSEELQANKATLVCLISDFYPGAVTVAWKADSSPVKAGVETTTPSKQSNNKYAASSYLSLTPEQWKSHRSYSCQVTHEGSTVEKTVAPTECS
modifications: left off: a dimerising Fc or GST
Take B1: in the test with 92.1 uveal melanoma, the GI50 came to 0.278 nM. Also, the tumor growth result in test [1] is given as “inhibited tumor growth in a dose-dependent manner”.

B2: MOR024353: anti-PMEL17 antibody (IgG) (antibody, V domains shown)
VH: QVQLVQSGAEVKKPGSSVKVSCKASGGTFSDYAISWVRQAPGQGLEWMGGIIPIFGDANYAQKFQGRVTITADESTSTAYMELSSLRSEDTAVYYCAREGSSYFYMAYWGQGTLVTVSS
VL: SYELTQPLSVSVALGQTARITCSGDNIGSKLASWYQQKPGQAPVLVIYDDSNRPSGIPERFSGSNSGNTATLTISRAQAGDEADYYCAATAGDRWAYVFGGGTKLTVL
For the molecule B2, the figures for the EC50 in the test with human PMEL17 and with mouse PMEL17 were 62.8 nM and above 100 nM, respectively. Also, in the test with UACC-62, the “UACC-62 (PE)” value is on record as “Negative”. Further, the “Cross spe profile (based on C14 detection ab)” value in the test with PMEL17 is reported as “h/c”.
